These results are taken from PMC3115801 (The Journal of Cell Biology, 2011).

The target of this experiment is T1, bacterially purified Epac1 (amino acids 149–882) (human, UniProt O95398-3 149-881).
T1 sequence (looked up): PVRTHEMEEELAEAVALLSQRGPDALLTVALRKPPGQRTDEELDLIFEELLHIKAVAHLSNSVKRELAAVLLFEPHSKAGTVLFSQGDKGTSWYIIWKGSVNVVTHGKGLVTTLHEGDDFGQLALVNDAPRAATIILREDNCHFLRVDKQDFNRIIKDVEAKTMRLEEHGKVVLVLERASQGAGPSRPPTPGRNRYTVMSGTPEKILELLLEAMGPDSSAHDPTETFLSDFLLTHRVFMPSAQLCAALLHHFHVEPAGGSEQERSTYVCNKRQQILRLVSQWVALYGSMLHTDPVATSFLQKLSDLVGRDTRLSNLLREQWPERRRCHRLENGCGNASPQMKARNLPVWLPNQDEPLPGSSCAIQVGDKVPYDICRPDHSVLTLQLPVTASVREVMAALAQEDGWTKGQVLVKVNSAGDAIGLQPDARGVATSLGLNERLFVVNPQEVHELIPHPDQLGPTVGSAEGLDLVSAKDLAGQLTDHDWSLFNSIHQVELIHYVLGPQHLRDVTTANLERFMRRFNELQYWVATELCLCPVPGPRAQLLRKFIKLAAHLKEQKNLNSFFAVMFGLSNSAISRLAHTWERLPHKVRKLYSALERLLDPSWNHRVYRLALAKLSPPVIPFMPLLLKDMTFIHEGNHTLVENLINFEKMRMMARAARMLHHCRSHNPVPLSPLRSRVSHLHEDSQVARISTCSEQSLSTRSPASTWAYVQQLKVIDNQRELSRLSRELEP
Briefly: pull-down.

B1: GST-tagged bacterially purified ZNF domain of RanBP2 (domain or fragment, UniProt P49792 1341-1819, looked up)
chain: NLNFEFQVAKKEGSWWHCNSCSLKNASTAKKCVSCQNLNPSNKELVGPPLAETVFTPKTSPENVQDRFALVTPKKEGHWDCSICLVRNEPTVSRCIACQNTKSANKSGSSFVHQASFKFGQGDLPKPINSDFRSVFSTKEGQWDCSACLVQNEGSSTKCAACQNPRKQSLPATSIPTPASFKFGTSETSKTLKSGFEDMFAKKEGQWDCSSCLVRNEANATRCVACQNPDKPSPSTSVPAPASFKFGTSETSKAPKSGFEGMFTKKEGQWDCSVCLVRNEASATKCIACQNPGKQNQTTSAVSTPASSETSKAPKSGFEGMFTKKEGQWDCSVCLVRNEASATKCIACQNPGKQNQTTSAVSTPASSETSKAPKSGFEGMFTKKEGQWDCSVCLVRNEASATKCIACQCPSKQNQTTAISTPASSEISKAPKSGFEGMFIRKGQWDCSVCCVQNESSSLKCVACDASKPTHKPIAEAPS
Consider B1, for which the binding result is “binds”.
